Assay results reported in patent US20190256599A1 (GlaxoSmithKline, published 2019).
Each block holds one binder with its values, some of them ahead of it.

B2: recombinant ICOS protein (R&D Systems) (receptor, human, UniProt Q9Y6W8 21-141, looked up)
chain: EINGSANYEMFIFHNGGVQILCKYPDIVQQFKMQLLKGGQILCDLTKTKGSGNTVSIKSLKFCHSQLSNNSVSFFLYNLDHSHANYYFCNLSIFDPPPFKVTLTGGYLHIYESQLCCQLKF
notes: Bought; also called ICOS receptor
B3: rabbit Fc-tagged recombinant human ICOS (Fc fusion, UniProt Q9Y6W8 21-140, looked up, not shown: a dimerising Fc or GST)
chain: EINGSANYEMFIFHNGGVQILCKYPDIVQQFKMQLLKGGQILCDLTKTKGSGNTVSIKSLKFCHSQLSNNSVSFFLYNLDHSHANYYFCNLSIFDPPPFKVTLTGGYLHIYESQLCCQLK
notes: Generated in-house; also called dimeric human ICOS; Fc-fusion version of the recombinant ICOS protein

Key:
human ICOS on cells = target: T1, human ICOS on cells (human, UniProt Q9Y6W8 21-199); assay: cell-based or functional assay
T1 sequence (looked up): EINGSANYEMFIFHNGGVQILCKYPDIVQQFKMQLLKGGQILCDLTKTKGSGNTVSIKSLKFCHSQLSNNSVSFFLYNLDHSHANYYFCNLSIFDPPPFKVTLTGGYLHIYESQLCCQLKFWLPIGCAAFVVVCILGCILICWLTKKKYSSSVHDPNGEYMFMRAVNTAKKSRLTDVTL

[1] = target: rabbit Fc-tagged recombinant Cynomolgus ICOS (cynomolgus macaque); assay: Biacore (SPR), column MONKEY kd (1/s)
[2] = target: rabbit Fc-tagged recombinant Cynomolgus ICOS (cynomolgus macaque); assay: Biacore (SPR), column MONKEY ka (1/Ms)
[3] = target: B3; assay: Biacore (SPR), column HUMAN kd (1/s)
Text: (§1) The ICOS binding data was fitted to a 1:1 kinetics model using the T200 data analysis software.

[4] = target: B3; assay: Biacore (SPR), column HUMAN ka (1/Ms)
Text: as §1

[5] = target: rabbit Fc-tagged recombinant Cynomolgus ICOS (cynomolgus macaque); assay: SPR, Biacore T200, Fc-tagged recombinant cynomolgus ICOS, 1:1 kinetics model
[6] = target: B3; assay: SPR, Biacore T200, Fc-tagged recombinant human ICOS, 1:1 kinetics model
Text: as §1

[7] = target: B3; assay: SPR, Biacore; affinity of H2L5 for dimeric human ICOS against that of ICOS-L
[8] = target: B3; assay: BIAcore target capture, capture level hICOS 23.7 RU, Rmax 26.5 RU
[9] = target: B3; assay: BIAcore target capture, capture level hICOS 39.8 RU, Rmax 40.5 RU
human FcγR I (human) = human FcγR I (human) (UniProt P12314); assay: SPR (ProteOn XPR36; table title says BIAcore), His-tagged FcγR captured, antibody as analyte, equilibrium model
human FcγR I (human), sequence (P12314 16-288 limits assumed): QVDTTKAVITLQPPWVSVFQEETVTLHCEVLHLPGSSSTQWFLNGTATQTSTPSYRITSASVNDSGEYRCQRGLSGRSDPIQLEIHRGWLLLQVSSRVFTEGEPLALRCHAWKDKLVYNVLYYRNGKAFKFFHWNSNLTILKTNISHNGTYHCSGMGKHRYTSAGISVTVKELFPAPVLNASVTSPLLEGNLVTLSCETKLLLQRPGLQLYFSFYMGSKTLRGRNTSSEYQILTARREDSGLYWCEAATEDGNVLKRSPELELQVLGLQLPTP

[10] = target: human FcγR IIa (R131) (human) (UniProt P12318); assay: as above
human FcγR IIa (R131) (human), sequence (P12318 36-218 H167R limits assumed): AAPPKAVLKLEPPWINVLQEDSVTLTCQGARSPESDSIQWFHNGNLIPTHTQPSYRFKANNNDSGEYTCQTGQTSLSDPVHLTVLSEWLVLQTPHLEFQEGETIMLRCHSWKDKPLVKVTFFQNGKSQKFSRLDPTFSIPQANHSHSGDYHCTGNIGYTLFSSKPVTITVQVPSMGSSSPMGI

human FcγR IIb (human) = human FcγR IIb (human) (UniProt P31994); assay: as above
human FcγR IIb (human), sequence (P31994 46-217 limits assumed): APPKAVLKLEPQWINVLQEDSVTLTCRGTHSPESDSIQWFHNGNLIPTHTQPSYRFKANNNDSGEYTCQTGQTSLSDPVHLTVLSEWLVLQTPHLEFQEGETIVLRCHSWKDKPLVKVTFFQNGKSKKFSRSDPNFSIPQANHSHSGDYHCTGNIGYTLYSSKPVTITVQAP

[11] = target: B2; assay: MSD competition assay on plate-coated ICOS; blocked ligand: human ICOS ligand at 1 ug/mL
Procedure: (§2) MSD plates were incubated overnight at 4° C. with 10 μg/mL recombinant ICOS protein (R&D Systems) diluted in PBS. […] Sulfo-tagged streptavidin at 10 μg/mL in Diluent 100 was used for detection of the biotinylated ligand. All incubations were at room temperature for one hour on a plate shaker unless otherwise noted. The plates were read immediately following MSD Read buffer addition on a MSD MESO Quick Plex SQ 120 and data analyzed on MSD workbench software (Meso-Scale, Rockville, Md.).

[12] = target: B2; assay: MSD competition assay: plate-coated recombinant ICOS, H2L5 IgG4PE titrated against 1 µg/mL human ICOS ligand (B7-H2); inhibition is partial
Procedure: as §2, with “Readbuffer” for “Read buffer”, “(Meso Scale Discovery).” for “(Meso-Scale, Rockville, Md.).”

[13] = target: T2, human ICOS ligand (B7-H2) (human, UniProt O75144 19-258, limits assumed); assay: MSD plate assay: 1 µg/mL human ICOS ligand (B7-H2) on plate-coated recombinant ICOS, detected with biotinylated anti-ICOS-L and sulfo-tag streptavidin
T2 construct: also called native ICOS-L; CD275
T2 sequence (looked up): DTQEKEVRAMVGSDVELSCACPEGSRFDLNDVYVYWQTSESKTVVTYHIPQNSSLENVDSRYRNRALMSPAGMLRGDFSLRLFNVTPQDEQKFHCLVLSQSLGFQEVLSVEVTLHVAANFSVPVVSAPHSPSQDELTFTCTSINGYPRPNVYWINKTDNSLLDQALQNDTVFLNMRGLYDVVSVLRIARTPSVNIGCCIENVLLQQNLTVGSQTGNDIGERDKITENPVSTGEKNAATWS
Procedure: as §2, with “Readbuffer” for “Read buffer”, “(Meso Scale Discovery).” for “(Meso-Scale, Rockville, Md.).”

[14] = target: T2, human ICOS ligand (B7-H2); assay: Biacore (SPR), human ICOS-L on dimeric human ICOS
[15] = target: T2, human ICOS ligand (B7-H2); assay: Biacore sensorgrams with fitted curves, ICOS-L on dimeric human ICOS

EC50 of IFNγ induction, isolated human CD4+ T cells, immobilized format, first donor (human ICOS on cells): 3.8 µg/mL
EC50 of IFNγ induction, isolated human CD4+ T cells, immobilized format, second donor (human ICOS on cells): 4.5 µg/mL
EC50 of IFNγ induction, isolated human CD4+ T cells, soluble format, first donor (human ICOS on cells): 6 µg/mL
EC50 of IFNγ induction, isolated human CD4+ T cells, soluble format, second donor (human ICOS on cells): 4.3 µg/mL
koff [1]: 0.000371 s⁻¹
kon [2]: 391000 M⁻¹ s⁻¹
koff [3]: 0.000396 s⁻¹
kon [4]: 297000 M⁻¹ s⁻¹
Kd [5]: 0.95 nM
Kd [6]: 1.34 nM
fold higher affinity than native ICOS-L/CD275 [7]: ~17 fold
stoichiometry [8]: 0.6
stoichiometry [9]: 0.5
Kd (human FcγR I (human)): 645 nM
Kd [10]: 2500 nM
Kd (human FcγR IIb (human)): 1470 nM
IC50 (read off the curve) [11]: ~2 µg/mL
IC50 (read off the curve) [12]: ~2 µg/mL
B1: H2L5 IgG4PE (antibody, V domains shown)
VH: QVQLVQSGAEVKKPGSSVKVSCKASGYTFTDYAMHWVRQAPGQGLEWMGLISIYSDHTNYNQKFQGRVTITADKSTSTAYMELSSLRSEDTAVYYCGRNNYGNYGWYFDVWGQGTTVTVSS
VL: EIVLTQSPATLSLSPGERATLSCSASSSVSYMHWYQQKPGQAPRLLIYDTSKLASGIPARFSGSGSGTDYTLTISSLEPEDFAVYYCFQGSGYPYTFGQGTKLEIK
notes: Humanized variant of murine clone 422.2; human IgG4 with S228P and L235E (EU numbering), called IgG4PE; also called H2L5 hIgG4PE; ICOS IgG4PE

Binder: B2
binding result [13]: binds

Binder: B3
Kd [14]: 22.6 nM
Kd [15]: 22.6 nM
